From PMC3019558 (The Journal of Cell Biology, 2011)

Experiments:
GDNF, NRTN, and ARTN = experiment: SPR
[1] = biological target: HS-carrying extracellular domain of syndecan-3 purified from rat brain (rat, UniProt P33671 45-387, heparan sulfate (HS) chains); experiment: SPR
HS-carrying extracellular domain of syndecan-3 purified from rat brain (rat, UniProt P33671 45-387, heparan sulfate (HS) chains), sequence (P33671 45-387): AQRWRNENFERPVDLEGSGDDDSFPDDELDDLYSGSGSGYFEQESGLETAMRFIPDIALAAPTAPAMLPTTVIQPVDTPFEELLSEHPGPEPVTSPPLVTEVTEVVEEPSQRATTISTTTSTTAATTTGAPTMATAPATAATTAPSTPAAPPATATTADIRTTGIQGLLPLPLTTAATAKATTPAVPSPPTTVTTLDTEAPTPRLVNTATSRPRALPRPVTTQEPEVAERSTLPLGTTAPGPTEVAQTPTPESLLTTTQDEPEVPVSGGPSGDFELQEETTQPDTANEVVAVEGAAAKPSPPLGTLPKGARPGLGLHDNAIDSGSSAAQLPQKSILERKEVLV

HS-carrying extracellular domain of syndecan-3 purified from rat brain (from UniProt P33671 45-387) (domain or fragment), sequence (P33671 45-387): as above

Kd (GDNF, NRTN, and ARTN) [nM] | Kd [1] [nM] | Molecule
10 to 50 | – | HS-carrying extracellular domain of syndecan-3 purified from rat brain (from UniProt P33671 45-387) (domain or fragment)
– | > 70 | persephin (PSPN) (ligand, UniProt O60542 61-156, looked up) ALSGPCQLWSLTLSVAELGLGYASEEKVIFRYCAGSCPRGARTQHGLALARLQGQGRAHGGPCCRPTRYTDVAFLDDRHRWQRLPQLSAAACGCGG
